# Legend:
# [1] = analysis of quenching profiles with brominated lipids; ref Phillips et al., 2005; Swartz, 2007; Jung et al., 2010; Mihailescu et al., 2014; cited from earlier work
# From the text: The results thus far reveal that both classes of tarantula toxins interact quite favorably with lipid membranes. […] For example, the solvent accessible surface area for the hydrophobic surface of PcTx1 is 380 Å^2, which compares with a value of 703 Å^2 for GxTx-1E. In addition, the hydrophobic surfaces on the two toxins are situated on distinct surfaces (Figure 1D,E). These differences between PcTx1 an ...
# [2] = Acrylamide dequenching by lipid vesicles (quenching-enhanced fluorescence titration); assay type: physicochemical; settings: LUVs POPC:POPG 1:1
# Procedure: (§1) Protection of tryptophan fluorescence from acrylamide quenching was examined in the absence and presence of lipids (toxin: lipid = 1:500) by titration with increasing concentrations of acrylamide ([Milescu et al., 2007]). The Stern–Volmer quenching constant (KSV) was calculated based on the best fits of the following equation to the data: F0/F = 1 + KSV[Q], where F0 and F are fluorescence of the toxin in the absence and presence of acrylamide, and [Q] is the concentration of acrylamide. […] A solution containing ∼ 2 µM toxin and 0.3 M acrylamide was stirred continuously with addition of increasing concentrations of LUVs composed of 1:1 mixture of POPC and POPG. Fluorescence spectra (averaging three spectra) were recorded between 300 and 450 nm (5 nm band pass, 0° polarizer) using an excitation wavelength of 280 nm (5 nm band pass, 90° polarizer) (SPEX FluoroMax 3 spectrofluorometer) and corrected for vesicle scattering. For calculating mole–fraction partitioning coefficients (Kdx), the maximal fluorescence intensity (F at λmax) was measured and normalized to the zero lipid fluorescence intensity (F0). […]
# [3] = system: Kv2.1-ASIC1a chimeras; test: Effect of PcTx1 on G-V relations of Kv2.1-ASIC1a chimeras in oocytes; assay type: cell-based; settings: 5 µM PcTx1, extracellular application, external 50 mM KCl, n = 3
# From the text: Chimeras were generated using sequential PCR with the Kv2.1∆7 channel ([Li-Smerin and Swartz, 1998]) as template. Primers encoding the 9-amino acid sequence of helix-5 from ASIC1a were utilized for overlap PCR. The DNA sequence of all constructs and mutants was confirmed by automated DNA sequencing. Complementary RNA (cRNA) was synthesized using T7 polymerase (mMessage mMachine kit; Ambion) after linearizing the DNA with appropriate restriction enzymes.
# Oocytes from Xenopus laevis were removed surgically and incubated with agitation for 1 hr in a solution containing (in mM) 82.5 NaCl, 2.5 KCl, 1 MgCl2, 5 HEPES, pH 7.6 (with NaOH), and collagenase (2 mg/ml; Worthington Biochemical). Defolliculated oocytes were injected with cRNA encoding the Kv2.1 channel constructs and incubated at 17°C in a solution containing (in mM) 96 NaCl, 2 KCl, 1 MgCl2, 1.8 CaCl2, 5 HEPES, pH 7.6 with NaOH, and gentamicin (50 μg/ml, GIBCO-BRL), for 16–72 hr before electrophysiological recording. Oocyte membrane voltage was controlled using an OC-725C oocyte clamp (Warner Instruments). Data were filtered at 1 kHz and digitized at 10 kHz. Microelectrode resistances were 0.1–1 MΩ when filled with 3 M KCl. […] All experiments were performed at room temperature (∼22°C). Voltage-activations relationships in the absence and presence of different concentrations of the synthesized toxin were recorded. […]
# [4] = Acrylamide quenching of Trp fluorescence (Stern-Volmer), protection by lipid vesicles; assay type: physicochemical; settings: n = 3
# Procedure: as §1
# [5] = target: T1, Kv2.1 channel (Rattus norvegicus, UniProt P15387); test: Inhibition of Kv2.1 channel currents in Xenopus oocytes (two-electrode voltage clamp), apparent affinity; assay type: cell-based
# T1 construct: expressed in transfected cells; host or cells: Xenopus laevis oocytes, cRNA injection
# T1 sequence (P15387 1-857): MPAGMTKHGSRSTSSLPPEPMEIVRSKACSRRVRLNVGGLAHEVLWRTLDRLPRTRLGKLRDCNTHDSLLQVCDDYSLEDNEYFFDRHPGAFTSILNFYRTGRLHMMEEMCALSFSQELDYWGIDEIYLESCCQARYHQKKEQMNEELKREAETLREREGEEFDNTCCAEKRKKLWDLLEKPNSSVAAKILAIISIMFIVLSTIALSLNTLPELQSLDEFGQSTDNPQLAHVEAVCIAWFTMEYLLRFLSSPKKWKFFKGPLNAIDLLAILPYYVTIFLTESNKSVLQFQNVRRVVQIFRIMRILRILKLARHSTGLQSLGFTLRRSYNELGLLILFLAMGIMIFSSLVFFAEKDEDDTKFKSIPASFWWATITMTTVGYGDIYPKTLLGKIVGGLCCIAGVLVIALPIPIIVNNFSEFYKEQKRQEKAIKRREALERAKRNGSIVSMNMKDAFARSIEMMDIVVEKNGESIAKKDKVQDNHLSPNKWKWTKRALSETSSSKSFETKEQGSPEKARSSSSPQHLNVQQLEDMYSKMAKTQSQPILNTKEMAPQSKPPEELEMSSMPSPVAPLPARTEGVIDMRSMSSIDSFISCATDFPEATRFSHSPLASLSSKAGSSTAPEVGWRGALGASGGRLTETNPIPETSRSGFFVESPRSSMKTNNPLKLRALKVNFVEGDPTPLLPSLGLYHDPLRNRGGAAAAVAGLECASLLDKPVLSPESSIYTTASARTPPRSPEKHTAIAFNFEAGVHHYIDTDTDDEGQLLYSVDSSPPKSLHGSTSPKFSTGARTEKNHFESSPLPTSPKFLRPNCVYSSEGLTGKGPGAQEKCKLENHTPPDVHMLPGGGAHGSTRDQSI
# [6] = Membrane partitioning into lipid vesicles detected with intrinsic Trp fluorescence (blue shift); assay type: physicochemical; settings: lipid vesicles POPC:POPG 1:1
# Procedure: Large unilamellar vesicles (LUVs) were prepared by drying the phospholipids from a chloroform solution under a nitrogen stream. The dried lipid film was rehydrated in buffer containing 10 mM HEPES, 1 mM EDTA, pH 7.6 (HEB). The resulting dispersions were extruded through 100 nm pore size polycarbonate filters (Millipore Corp.) till the solution became clear. All fluorescence measurements were performed in quartz cuvettes with 1 cm path length. Fluorescence spectra (averaging three spectra) were recorded between 300 and 450 nm (5 nm band pass, 0° polarizer) using an excitation wavelength of 280 nm (5 nm band pass, 90° polarizer) (SPEX FluoroMax 3 spectrofluorometer) and corrected for vesicle scattering. […] Mole-fraction partitioning coefficients (Kx) were calculated by measuring the fluorescence intensity (F) at 320 nm and normalizing to the zero lipid fluorescence intensity (F0) ([Ladokhin et al., 2000]; [Milescu et al., 2007]). Kx was calculated based on the best fits of the following equation to the data: F/F0(L) = 1 + (F/F0^max − 1)Kx[L]/([W] + Kx[L]), where F/F0(L) is the change in fluorescence intensity for a given concentration of lipid, F/F0^max is the maximum fluorescence increase at high lipid concentrations, [L] is the average available lipid concentration (60% of total lipid concentration) and [W] is the molar concentration of water (55.3 M).
# [7] = Depth-dependent quenching of Trp fluorescence by brominated (diBr) phosphatidylcholines; assay type: physicochemical; settings: 6,7-, 9,10- or 11,12-diBr PC : POPG 1:1 vesicles, 1.2 mM lipid
# Procedure: For depth-dependent fluorescence quenching experiments with brominated lipids, LUVs contained a 1:1 molar ratio of POPG and POPC 6,7-, 9,10-, or 11,12-1-palmitoyl-2-stearoyl(dibromo)-sn-glycero-3-phosphocholine (diBr; Avanti Polar Lipids, Alabaster, AL). Fluorescence spectra were recorded between 300 and 450 nm using an excitation wavelength of 280 nm, corrected for vesicle scattering and normalized to the zero lipid fluorescence intensity.
# [8] = system: ASIC1a; settings: ref Chen et al., 2006; Dawson et al., 2012; cited from earlier work
# From the text: PcTx1 also contains an Arg finger motif composed of R26, R27 and R28 that is required for […] of ASIC through interactions with channel residues situated in a crevice between subunits. In the case of voltage-sensor toxins such as hanatoxin and GxTx-1E, the S3b helix within the voltage-sensing domains of Kv channels co ...
molecule,measurement,setting,value
hanatoxin,position of Trp residues from the center of the bilayer,[1],8–9 Å
PcTx1,Kdx (mole-fraction partitioning coefficient from acrylamide dequenching),"[2]; maximal fluorescence intensity vs available lipid, ∼2 µM toxin, acrylamide 0.2 M / 0.3 M (methods), mean ± SEM (n = 3)",(4.3 ± 0.6) × 10^6
same,F/F0^max (dequenching function fit),"[2]; maximum fluorescence increase at highest lipid concentration, acrylamide present",2.7 ± 0.08
same,effect on activity of five Kv2.1-ASIC1a chimeras (G-V relations),[3],no discernible effect
same,"Ksv (Stern–Volmer constant), acrylamide quenching in aqueous solution","[4]; toxin ∼2 µM in solution, no lipid",29.2 M⁻¹
same,"Ksv (Stern–Volmer constant), acrylamide quenching in presence of lipid vesicles",[4]; toxin ∼2 µM with 1.0 mM POPC:POPG 1:1 vesicles (toxin:lipid 1:500),11.2 M⁻¹
same,effect on the Kv2.1 channel (G-V relation),"[5]; 5 µM PcTx1, oocytes, external solution 50 mM KCl, tail currents, n = 3",no effect
same,maximal blue shift of Trp emission spectrum upon addition of lipid vesicles,[6],~2 nm
same,quenching of Trp fluorescence by brominated lipids (in words),[7],very weak quenching
same,affinity for ASIC1a (in words),[8],nM affinity
CC(C)C[C@@H]1NC(=O)CNC(=O)[C@H](Cc2c[nH]c3ccccc23)NC(=O)[C@H](CCCCN)NC(=O)[C@@H]2CCCN2C(=O)[C@H](CO)NC(=O)[C@@H]2CSSC[C@@H]3NC(=O)[C@H](CCCCN)NC(=O)[C@H](Cc4c[nH]c5ccccc45)NC(=O)[C@H](Cc4c[nH]c5ccccc45)NC(=O)[C@H](Cc4ccccc4)NC(=O)CNC(=O)CNC(=O)[C@@H](NC(=O)[C@H](CCC(=O)O)NC(=O)CNC(=O)[C@@H](N)CCC(=O)O)CSSC[C@H](NC(=O)[C@H](CSSC[C@@H](C(=O)N[C@@H](CC(N)=O)C(=O)N[C@@H](Cc4ccccc4)C(=O)N4CCC[C@H]4C(=O)N[C@@H](C)C(=O)N4CCC[C@H]4C(=O)O)NC1=O)NC(=O)[C@H](C)NC(=O)[C@@H]1CCCN1C(=O)[C@H](CCCCN)NC(=O)CNC(=O)[C@H](CO)NC(=O)CNC3=O)C(=O)N1CCC[C@H]1C(=O)N[C@@H](CCCCN)C(=O)N[C@@H](Cc1ccc(O)cc1)C(=O)N[C@@H](C(C)C)C(=O)N2 [Nle35A],∆∆G (perturbation energy),"[5]; from apparent Kd of mutant vs GxTx-1E(Nle), Kv2.1 in oocytes",0.19 kcal/mol

# From paper PMC4423116, “Tarantula toxins use common surfaces for interacting with Kv and ASIC ion channels” (eLife, 2015)
